From the supplement of paper PMC9112550, “Optimization of the antimicrobial peptide Bac7 by deep mutational scanning” (BMC Biology, 2022)

Tested on: Escherichia coli TOP10
Assay: shrunken log2 fold change of peptide-encoding DNA abundance (4.5 h post-induction vs induction); higher = less antimicrobial activity (less host growth inhibition)
Conditions: time post-induction: 4.5 h; library: site-saturation at positions 5, 18, 19, 20
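Further: peptides expressed intracellularly from a pBAD plasmid library in pooled LB shake-flask culture, induced with 0.3% L-arabinose, DNA abundance read by NGS, three biological replicates, DESeq2 with apeglm shrinkage.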

Sequence	shrunken log2 fold change
RRIRCRPPRLPRPRPRPKCLPRP	0.036
RRIRPRPPRLPRPRPRPCIAPRP	0.00774
RRIRVRPPRLPRPRPRPGTKPRP	0.193
RRIRKRPPRLPRPRPRPPYAPRP	0.424
RRIRFRPPRLPRPRPRPNESPRP	0.0698
RRIRQRPPRLPRPRPRPEFNPRP	-0.0823
RRIRIRPPRLPRPRPRPGHHPRP	-0.309
RRIRFRPPRLPRPRPRPAIGPRP	-0.0142
RRIRFRPPRLPRPRPRPADNPRP	0.0503
RRIRERPPRLPRPRPRPIKRPRP	-0.171
RRIRRRPPRLPRPRPRPYILPRP	0.366
RRIRSRPPRLPRPRPRPRTVPRP	0.106
RRIRMRPPRLPRPRPRPKHSPRP	0.247
RRIRGRPPRLPRPRPRPRWPPRP	0.973
RRIRPRPPRLPRPRPRPWTWPRP	-0.0128
RRIRQRPPRLPRPRPRPCSHPRP	0.0226
RRIRYRPPRLPRPRPRPHQPPRP	-0.748
RRIRHRPPRLPRPRPRPHREPRP	0.00911
RRIRLRPPRLPRPRPRPVMYPRP	-0.302
RRIRSRPPRLPRPRPRPFFNPRP	0.00333
RRIRCRPPRLPRPRPRPEPGPRP	0.364
RRIRQRPPRLPRPRPRPQNAPRP	-0.198
RRIRKRPPRLPRPRPRPRINPRP	0.0244
RRIRNRPPRLPRPRPRPHYIPRP	-0.842
RRIRMRPPRLPRPRPRPKMGPRP	-0.00235

Sequence	shrunken log2 fold change
RRIRARPPRLPRPRPRPVWLPRP	0.399
RRIRHRPPRLPRPRPRPTYLPRP	-0.133
RRIRCRPPRLPRPRPRPHMDPRP	-0.329
RRIRHRPPRLPRPRPRPKFPPRP	0.442
RRIRGRPPRLPRPRPRPIQQPRP	0.0149
RRIRDRPPRLPRPRPRPMGYPRP	-0.115
RRIRMRPPRLPRPRPRPLYWPRP	0.0465
RRIRSRPPRLPRPRPRPREHPRP	0.152
RRIRCRPPRLPRPRPRPTWKPRP	-0.114
RRIRGRPPRLPRPRPRPIHTPRP	0.0205
RRIRERPPRLPRPRPRPLSTPRP	-0.48
RRIRWRPPRLPRPRPRPWAEPRP	0.267
RRIRARPPRLPRPRPRPARHPRP	0.424
RRIRQRPPRLPRPRPRPFHYPRP	-0.996
RRIRPRPPRLPRPRPRPYMDPRP	-0.447
RRIRTRPPRLPRPRPRPGNRPRP	0.192
RRIRERPPRLPRPRPRPMLMPRP	-0.142
RRIRDRPPRLPRPRPRPNSCPRP	0.0563
RRIRARPPRLPRPRPRPKGSPRP	0.199
RRIRVRPPRLPRPRPRPNCQPRP	-0.1
RRIRHRPPRLPRPRPRPNFWPRP	0.257
RRIRNRPPRLPRPRPRPWVDPRP	-0.00748
RRIRKRPPRLPRPRPRPEGTPRP	0.0154
RRIRHRPPRLPRPRPRPSNCPRP	-0.337
RRIRNRPPRLPRPRPRPGHIPRP	-0.433
